# Data from publication PMC2064680 (The Journal of Cell Biology, 2006).
# Where “and” joins values, the source holds several entries; their conditions need not be identical. Equal values may be shown once.
# T1: ESCRT-I purified from E. coli (Vps23, Vps28, Vps37) (yeast, UniProt P25604 1-385; Q02767 1-242; Q99176 1-213)
# T1 sequence (looked up) 1: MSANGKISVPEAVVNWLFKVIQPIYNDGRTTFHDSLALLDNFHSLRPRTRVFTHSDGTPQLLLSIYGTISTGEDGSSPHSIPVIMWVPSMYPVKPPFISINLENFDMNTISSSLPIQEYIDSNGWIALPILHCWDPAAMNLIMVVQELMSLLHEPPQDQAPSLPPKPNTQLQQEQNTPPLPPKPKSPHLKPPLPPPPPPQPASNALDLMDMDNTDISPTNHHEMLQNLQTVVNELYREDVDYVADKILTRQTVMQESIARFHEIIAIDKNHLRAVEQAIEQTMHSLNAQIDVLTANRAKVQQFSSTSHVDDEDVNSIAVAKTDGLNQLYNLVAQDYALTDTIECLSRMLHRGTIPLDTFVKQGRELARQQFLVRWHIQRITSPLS
# T1 sequence (looked up) 2: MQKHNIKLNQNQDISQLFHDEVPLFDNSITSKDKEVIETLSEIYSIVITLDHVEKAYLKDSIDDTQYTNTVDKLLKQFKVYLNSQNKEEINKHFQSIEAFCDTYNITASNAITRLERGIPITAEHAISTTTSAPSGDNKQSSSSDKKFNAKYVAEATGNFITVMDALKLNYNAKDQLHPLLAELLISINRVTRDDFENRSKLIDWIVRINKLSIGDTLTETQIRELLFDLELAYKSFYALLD
# T1 sequence (looked up) 3: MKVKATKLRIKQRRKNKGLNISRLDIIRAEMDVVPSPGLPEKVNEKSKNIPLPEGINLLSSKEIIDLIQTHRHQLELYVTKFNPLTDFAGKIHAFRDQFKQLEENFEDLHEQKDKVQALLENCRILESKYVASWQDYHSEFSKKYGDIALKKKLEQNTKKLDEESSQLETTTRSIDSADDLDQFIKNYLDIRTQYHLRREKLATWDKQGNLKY
# B1: Mvb12, E. coli-expressed (unpublished in vitro analyses) (natural protein, yeast, UniProt P42939 1-101, looked up)
# chain: MNNNVEELLRRIPLYNKYGKDFPQETVTRFQMPEFKLPALQPTRDLLCPWYEECDNITKVCQLHDSSNKKFDQWYKEQYLSKKPPGIVGNTLLSPSRKDNS
# What was measured:
# [1] = target: ESCRT-I purified from E. coli (Vps23, Vps28, Vps37) (yeast) (UniProt P25604); experiment: cross-linking
# [2] = target: T1, ESCRT-I purified from E. coli (Vps23, …)
Molecule,stoichiometry N [1],stoichiometry N [2]
"ESCRT-I purified from E. coli (Vps23, Vps28, Vps37) (from UniProt P25604 1-385; Q02767 1-242; Q99176 1-213) (complex)",2 and 3,–
B1,–,1
